Measurements taken from US20200216495A1 (ADRX, published 2020).
Square brackets hold non-standard residues; d marks the D form. Primed or numbered codes have the meaning given here. Ends that are not written are not given here. PEG2′ = not defined here; Tam = not defined here

T1: His-Tau40 P301L Tau fibrils (human)
T1 chain: RLRIRW


Each binder was assayed against Tau40 P301L protein (human) (assay: cell-based or functional assay).

Binder | IC50, Tau40 assay-Modified peptides (ThT) [µM]
Tam-RRRRRRRRRRGGSGG[dL][dE][dL][dK][dI][dK][dF][dW] (reading uncertain; also: printed as Tam-RRRRRRRRRR-GGSGG-lelkikfw) [Tam-RRRRRRRRRR-GGSGG-lelkikfw] | 8.71
Tam-RRRRRRRRRGGSGG[dW][dR][dL][dK][dV][dR][dW][dW] (reading uncertain; also: printed as Tam-RRRRRRRRR-GGSGG-wrlkvrww) [Tam-RRRRRRRRR-GGSGG-wrlkvrww] | 20.5
Tam-RRRRRRRRRRGGSGG[dT][dL][dK][dI][dV][dW] (reading uncertain; also: printed as Tam-RRRRRRRRRR-GGSGG-tlkivw) [Tam-RRRRRRRRRR-GGSGG-tlkivw] | 4.92
YGRKKRRQRRRGGSGG[dR][dL][dK][dV][dR][dW] [[…]-GGSGG-rlkvrw] | 1.73
Tam-YGRKKRRQRRRGGSGG[dW][dR][dL][dK][dV][dR][dW][dW] (reading uncertain) [Tam-[…]-GGSGG-wrlkvrww] | 6.6
Tam-RRRRRRRRRRGGSGG[dW][dK][dV][dQ][dV][dR][dL][dW] (reading uncertain; also: printed as Tam-RRRRRRRRRR-GGSGG-wkvqvrlw) [Tam-RRRRRRRRRR-GGSGG-wkvqvrlw] | 5.53
{TAMRA5-PEG2′}-[dW][dR][dA][dK][dA][dR][dA][dW]-OH [TAMRA5-PEG2-wrakaraw-OH] | 9.17
Tam-RRRRRRRRRRGGSGG[dW][dR][dI][dW][dI][dR][dY][dW] (reading uncertain; also: printed as Tam-RRRRRRRRRR-GGSGG-wriwiryw) [Tam-RRRRRRRRRR-GGSGG-wriwiryw] | 4.94

Biological target: T1, His-Tau40 P301L Tau fibrils
Experiment: cell-based or functional assay

Binder | EC50, HEK cell assay (TauRD(P301S) split luciferase, seeded with tau fibrils) [µM]
RRRRRRRRRRGGSGG[dL][dE][dL][dK][dI][dK][dF][dW] [RRRRRRRRRR-GGSGG-lelkikfw] | 16.4
RRRRRRRRRRGGSGG[dE][dL][dK][dI][dV][dW] [RRRRRRRRRR-GGSGG-elkivw] | 11.7
RRRRRRRRRRGGSGG[dW][dK][dV][dQ][dV][dR][dL][dW] [RRRRRRRRRR-GGSGG-wkvqvrlw] | 2.1
RRRRRRRRRGGSGG[dW][dR][dI][dW][dI][dR][dY][dW] [RRRRRRRRR-GGSGG-wriwiryw] | 0.9
RRRRRRRRRRGGSGG[dT][dL][dK][dI][dV][dW] [RRRRRRRRRR-GGSGG-tlkivw] | 2.9
RRRRRRRRRRGGSGG[dW][dR][dL][dK][dV][dR][dW][dW] [RRRRRRRRRR-GGSGG-wrlkvrww] | 2.3

Biological target: T1, His-Tau40 P301L Tau fibrils
Experiment: cell-based or functional assay
Remark: another data set of the same source

Binder | EC50, HEK cell assay (TauRD(P301S) split luciferase, seeded with tau fibrils) [µM]
Tam-RRRRRRRRRRGGSGG[dL][dE][dL][dK][dI][dK][dF][dW] (reading uncertain; also: printed as Tam-RRRRRRRRRR-GGSGG-lelkikfw) [Tam-RRRRRRRRRR-GGSGG-lelkikfw] | 12.1
Tam-RRRRRRRRRRGGSGG[dE][dL][dK][dI][dV][dW] (reading uncertain; also: printed as Tam-RRRRRRRRRR-GGSGG-elkivw) [Tam-RRRRRRRRRR-GGSGG-elkivw] | 5.6
Tam-RRRRRRRRRGGSGG[dW][dR][dL][dK][dV][dR][dW][dW] (reading uncertain; also: printed as Tam-RRRRRRRRR-GGSGG-wrlkvrww) [Tam-RRRRRRRRR-GGSGG-wrlkvrww] | 1.5
Tam-RRRRRRRRRRGGSGG[dT][dL][dK][dI][dV][dW] (reading uncertain; also: printed as Tam-RRRRRRRRRR-GGSGG-tlkivw) [Tam-RRRRRRRRRR-GGSGG-tlkivw] | 3.6
Tam-YGRKKRRQRRRGGSGG[dW][dR][dL][dK][dV][dR][dW][dW] (reading uncertain) [Tam-[…]-GGSGG-wrlkvrww] | 1.8
Tam-RRRRRRRRRRGGSGG[dW][dK][dV][dQ][dV][dR][dL][dW] (reading uncertain; also: printed as Tam-RRRRRRRRRR-GGSGG-wkvqvrlw) [Tam-RRRRRRRRRR-GGSGG-wkvqvrlw] | 1.5
RRRRRRRRRRGGSGG[dW][dR][dL][dK][dV][dR][dW][dW] [RRRRRRRRRR-GGSGG-wrlkvrww] | 1.7
